Test results published in publication PMC10141581, “Autonomous Synthesis of Functional, Permanently Phosphorylated Proteins for Defining the Interactome of Monomeric 14-3-3ζ” (ACS Central Science, 2023).

Biological target: the molecule itself
Test: SEC-MALS; 14-3-3ζ variants alone, injected at 50 μM initial concentration; Superdex 200 10/300 GL; 50 mM Tris pH 7.4, 150 mM NaCl, 0.5 mM TCEP; room temperature; dimer to monomers

B1: 14-3-3ζ S58E (natural protein, human)
chain: MDKNELVQKAKLAEQAERYDDMAACMKSVTEQGAELSNEERNLLSVAYKNVVGARRSEWRVVSSIEQKTEGAEKKQQMAREYREKIETELRDICNDVLSLLEKFLIPNASQAESKVFYLKMKGDYYRYLAEVAAGDDKKGIVDQSQQAYQEAFEISKKEMQPTHPIRLGLALNFSVFYYEILNSPEKACSLAKTAFDEAIAELDTLSEESYKDSTLIMQLLRDNLTLWTS
notes: 14-3-3 protein zeta with Glu at position 58 (ζ-isoform numbering); also called S58E variant; phosphomimetic S58E; source: E. coli, purified
stoichiometry N: 2
